Data on four molecules can be found in patent US20190040368A1.

For the test, the target named is recombinant human iduronate-2 sulfatase (rhIDS) (human) (UniProt P22304). Nature of the test: cell-based or functional assay.
Chain of recombinant human iduronate-2 sulfatase (rhIDS) (human) (P22304 26-550 limits assumed): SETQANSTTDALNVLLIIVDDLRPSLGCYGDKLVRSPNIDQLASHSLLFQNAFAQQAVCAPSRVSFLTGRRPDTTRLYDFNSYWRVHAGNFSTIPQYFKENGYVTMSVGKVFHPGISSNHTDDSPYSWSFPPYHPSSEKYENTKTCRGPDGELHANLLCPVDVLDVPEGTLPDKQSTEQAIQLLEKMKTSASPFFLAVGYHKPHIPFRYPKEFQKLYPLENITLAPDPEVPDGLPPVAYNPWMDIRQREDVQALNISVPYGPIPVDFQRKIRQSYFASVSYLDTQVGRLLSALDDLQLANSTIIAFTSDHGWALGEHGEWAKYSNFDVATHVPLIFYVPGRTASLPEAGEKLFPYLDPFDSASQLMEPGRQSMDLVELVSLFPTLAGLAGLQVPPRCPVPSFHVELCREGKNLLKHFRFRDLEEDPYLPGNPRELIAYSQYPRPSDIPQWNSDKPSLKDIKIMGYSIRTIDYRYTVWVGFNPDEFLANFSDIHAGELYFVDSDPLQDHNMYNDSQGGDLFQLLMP

B1: Monodelphis domestica Lip2-MdFGE-His6-HDEL fusion construct (enzyme)
chain: AARGLGSEAGSAAADAAHPAGTCGCGSPQRPGTAAHRYSREANVAEPASAERPVLTSQMAHIPAGVFTMGTDEPQIKQDGEGPARRVRINSFYMDLYEVSNAEFERFVNSTGYVTEAEKFGDSFVFDSMLSDQVKSDIHQAVAAAPWWLPVKGANWRHPEGPDSSILHRRDHPVLHVSWNDAVAYCTWAGKRLPTEAEWEYSCRGGLENRLFPWGNKLQPKGQHYANIWQGEFPVSNTGEDGYQGTAPVTAFPPNGYGLYNIVGNAWEWTSDWWTVHHSADETLDPKGPPSGSDRVKKGGSYMCHKSYCYRYRCAARSQNTPDSSASNLGFRCAADRLPDTHHHHHHHDEL
For B1, the % FGly (LC-MS); co-expression with MdFGE worked out at 100%.

B2: Columba livia Lip2-C1FGE-His6-HDEL fusion construct (enzyme)
chain: MVVIPGGVFTMGTDEPAIQQDGEWPVRKVHVNSFYMDRYEVSNEDFERFVNSTGYVTEAEKFGDSFVFEGMLSEEVKAEIHQAVAAAPWWLPVKGANWKHPEGPDSNISNRMDHPVLHVSWNDAVAFCTWAGKRLPTEAEWEYSCRGGLENRLFPWGNKLQPKGQHYANIWQGVFPTNNTAEDGYKGTAPVTAFPPNGYGLYNIVGNAWEWTADWWAVHHSTEEVHNPKGPSSGTDRVKKGGSYMCHKSYCYRYRCAARSQNTPDSSASNLGFRCAADASPELPHHHHHHHDEL
Consider B2, for which the % FGly (LC-MS); co-expression with ClFGE was 100%.

B3: Gallus gallus Lip2-GgFGE-His6-HDEL fusion construct (enzyme)
chain: GKETAPGGNCGCSASRSRGGEREAVATVRRYSAAANDGRSSGRGPMVAIPGGVFTMGTDEPEIQQDGEWPARRVHVNSFYMDQYEVSNQEFERFVNSTGYLTEAEKFGDSFVFEGMLSEEVKAEIHQAVAAAPWWLPVKGANWRQPEGPGSSILSRMDHPVLHVSWNDAVAFCTWAGKRLPTEAEWEYGCRGGLEKRLFPWGNKLQPKGQHYANIWQGVFPTNNTAEDGYKGTAPVTAFPPNGYGLYNIVGNAWEWTSDWWAVHHSADEAHNPKGPSSGTDRVKKGGSYMCHKSYCYRYRCAARSQNTPDSSASNLGFRCAADALPDPQHHHHHHHDEL
Consider B3, for which the % FGly (LC-MS); co-expression with GgFGE was 78%.

B4: Hemicentrotus pulcherrimus FGE fusion protein (Lip2pre-HpFGE-6HIS-HDEL) (enzyme)
chain: ENEDINQNISPTQSHTTATTEEELAEARGEEIDSDPTSEGSGAGEGCGCGSSALNRNHDEDALGLALEENLHDHVQEGAALKYSREANDPISMDHPEANVGAFPRTNQMNFIEGGTFRMGTDKAKIYLDGESPSRLVTLDPYYFDVYEVSNSEFELFVNTTSYITEAEKFGDSFVLEARISEEVKKDISQVVAAAPWWLPVKGAEWRHPEGPDSSISSRMDHPVTHISWNDATAYCQWAGKRLPTEAEWENAARGGLNNRLFPWGNKLMPKDHHRVNIWQGEFPKVNTAEDGYEGTCPVTAFEPNGYGLYNTVGNAWEWVADWWTTVHSPESQNNPVGPDEGTDKVKKGGSYMCHISYCYRYRCEARSQNSPDSSACNLGFRCAATNLPEDIPCSNCNDSTPHHHHHHHDEL
Regarding B4, the % FGly (LC-MS, cation exchange purified); OXYY1801 (20° C.), 1c rhIDS, 2c HpFGE is 100%; the % FGly (LC-MS, cation exchange purified); OXYY1801 (24° C.), 1c rhIDS, 2c HpFGE was determined as 100%; the % FGly (LC-MS, cation exchange purified); OXYY1801 (26° C.), 1c rhIDS, 2c HpFGE was 70.4%.
